Experimental data reported in patent publication US20040253234A1 (Kyowa Kirin, published 2004).

T1: C-terminus-biotin labeled compound 1 (an N-terminus peptide of FGF-8; SEQ ID NO:15) (human, C-terminus-biotin labeled)
T1 construct: also called FGF-8 peptide
T1 peptide: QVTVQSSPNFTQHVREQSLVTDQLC

T2: BSA-compound 1 conjugate (human FGF-8 peptide Compound 1, SEQ ID NO:15, conjugated to bovine serum albumin) (human, conjugated to bovine serum albumin through SMCC)
T2 construct: The BSA carrier is not written as a chain
T2 peptide: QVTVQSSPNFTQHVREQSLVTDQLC

T3: FGF-8 (manufactured by R&D) (UniProt P55075-3 23-215, limits assumed)
T3 sequence (looked up): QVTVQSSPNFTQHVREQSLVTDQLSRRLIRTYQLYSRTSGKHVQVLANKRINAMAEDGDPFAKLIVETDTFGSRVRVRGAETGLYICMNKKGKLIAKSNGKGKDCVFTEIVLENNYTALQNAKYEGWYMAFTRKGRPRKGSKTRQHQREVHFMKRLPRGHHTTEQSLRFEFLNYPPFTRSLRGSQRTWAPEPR


Legend:
[1] = molecular target: T1, C-terminus-biotin labeled compound 1 …; experiment: BIAcore 2000, C-terminus-biotin labeled FGF-8 peptide on SA chip, antibody as analyte, RU compared
Description: In order to examine the activity of various anti-FGF-8 CDR-grafted antibodies obtained in the item 5 of Example 3 to bind to FGF-8 in more detail, activities of various anti-FGF-8 CDR-grafted antibodies to bind to FGF-8 were measured and compared as follows by using BIAcore 2000 (manufactured by BIACORE). The CHO/DG44-derived anti-FGF-8 chimeric antibody KM3034 obtained in the item 3(1) of Example 1 was used as a positive control.
Hereinbelow, HBS-EP (manufactured by Pharmacia) was used as the buffer solution for dilution of samples and during the measurement. First, a sensor tip SA (manufactured by BIACORE) was set, and 5 μl of a C-terminus-biotin labeled compound 1 (an N-terminus peptide of FGF-8; SEQ ID NO:15) prepared to a solution of 0.05 μg/ml was added thereto at a flow rate of 20μl/minute. Thereafter, the tip surface was washed by adding 5 μl of 10 mmol/l Glycine-HCl buffer (pH 1.5) continuously twice. Immobilized amount of the FGF-8 peptide was 35 RU.
To the FGF-8 peptide immobilized flow cell, 60 μl of each antibody solution was added at a flow rate of 20 μl/minute, and then the dissociation reaction was monitored for 3 minutes. After the dissociation reaction, the tip surface was regenerated by adding 20 μl of 10 mmol/l Glycine-HCl buffer (pH 1.5) continuously twice. This cycle was carried out for antibody solutions of various concentrations (50 to 1.85 μg/ml), and a sensorgram at each concentration was obtained. The sensorgram of each antibody was made into a sensorgram of specific reaction by subtracting a sensorgram obtained using a chimeric antibody KM871 for GD3 [Cancer Immunol. Immunother., 36, 373 (1993)] as a negative control.

[2] = molecular target: T2, BSA-compound 1 conjugate (human FGF-8 …); experiment: ELISA, plate-coated BSA-compound 1 conjugate, anti-human IgG-peroxidase detection; positive control
Description: The conjugate prepared in the above was dispensed at 50 μl/well into a 96 well plate for ELISA (manufactured by Greiner) at a concentration of 0.5 to 1.0 μg/ml and allowed to stand for adsorption overnight at 4° C. After washing with PBS, 1% BSA-containing PBS (BSA-PBS) was added at 100 μl/well and allowed for blocking of remaining active groups to react at room temperature for 1 hour. After washing each well with 0.05% Tween-containing PBS (Tween-PBS), culture supernatants of transformants or purified antibodies were added at 50 μl/well and allowed to react at room temperature for 1 hour. After the reaction, each well was washed with Tween-PBS and then a peroxidase-labeled goat anti-human IgG (H & L) antibody solution (manufactured by American Qualex) diluted 3,000 to 6,000-folds with BSA-PBS was added as a secondary antibody solution at 50 μl/well and allowed to react at room temperature for 1 hour. […] Thereafter, absorbance at 415 nm (OD415) was measured.
The activity of various anti-FGF-8 CDR-grafted antibodies obtained in the item 4 of Example 2 to bind to FGF-8 was measured by the ELISA described in the item 2(6) of Example 1. […]

[3] = molecular target: T2, BSA-compound 1 conjugate (human FGF-8 …); experiment: ELISA, plate-coated BSA-compound 1 conjugate, anti-human IgG-peroxidase detection
Description: The conjugate prepared in the above was dispensed at 50 μl/well into a 96 well plate for ELISA (manufactured by Greiner) at a concentration of 0.5 to 1.0 μg/ml and allowed to stand for adsorption overnight at 4° C. After washing with PBS, 1% BSA-containing PBS (BSA-PBS) was added at 100 μl/well and allowed for blocking of remaining active groups to react at room temperature for 1 hour. After washing each well with 0.05% Tween-containing PBS (Tween-PBS), culture supernatants of transformants or purified antibodies were added at 50 μl/well and allowed to react at room temperature for 1 hour. After the reaction, each well was washed with Tween-PBS and then a peroxidase-labeled goat anti-human IgG (H & L) antibody solution (manufactured by American Qualex) diluted 3,000 to 6,000-folds with BSA-PBS was added as a secondary antibody solution at 50 μl/well and allowed to react at room temperature for 1 hour. After the reaction and subsequent washing with Tween-PBS, an ABTS substrate solution [a solution prepared by dissolving 0.55 g of 2,2′-azinobis(3-ethylbenzothiazoline-6-sulfonic acid) ammonium in 1 L of 0.1 M citrate buffer (pH 4.2) and adding 1 μl/ml hydrogen peroxide just before use] was added at 50 μl/well for color development, and the reaction was stopped by adding 5% SDS solution at 50 µl/well. Thereafter, absorbance at 415 nm (OD415) was measured.
The activity of various anti-FGF-8 CDR-grafted antibodies obtained in the item 4 of Example 2 to bind to FGF-8 was measured by the ELISA described in the item 2(6) of Example 1. The YB2/0-derived anti-FGF-8 chimeric antibody KM3334 obtained in the item 3(2) of Example 1 was used as a positive control.

[4] = molecular target: T3, FGF-8 (manufactured by R&D); experiment: cell-based or functional assay

binding result [1]	binding result [3]	Binder	further results
binds		anti-FGF-8 CDR-grafted antibody HV0LV3-1/CHO (antibody, V domains shown, CHO/DG44-derived; also called KM8036) VH: QVQLVQSGAEVKKPGASVKVSCKASGYTFTDYYLNWVRQAPGQGLEWMGEIDPGSDSIYYNENLEGRVTITADTSTSTAYMELSSLRSEDTAVYYCARYGYSRYDVRFVYWGQGTLVTVSS VL: DVVMTQSPLSLPVTPGEPASISCRSSQSLVHSNGRTYLEWYLQKPGQSPQVLIYKVSNRISGVPDRFSGSGSGTDFTLKISRVEAEDVGVYFCFQGSHVPYTFGQGTKVEIK	
binds		anti-FGF-8 chimeric antibody KM3034 (antibody, V domains shown, Human chimeric antibody with human gamma1 CH and human kappa CL (vector pKANTEX1334, from pKANTEX93), expressed in CHO/DG44 cells; also called CHO/DG44-derived anti-FGF-8 chimeric antibody) VH: QVQLQQSGAEVARPGASVKLSCKASGYTFTDYYLNWVKQRSGQGLEWIGEIDPGSDSIYYNENLEGRATLTADKSSSTAYMQLNSLTSEDSAVYFCARYGYSRYDVRFVYWGQGTLVTVST VL: DVLMTQTPLSLPVSLGDQASISCRSSQSLVHSNGRTYLEWYLQKPGQSPKVLIYKVSNRISGVPDRFSGSGSGTDFTLKISRVEAEDLGVYFCFQGSHVPYTFGGGTKLEIK	
		anti-FGF-8 chimeric antibody KM3334 (antibody, V domains shown, Same expression vector pKANTEX1334 as KM3034 (human gamma1 / kappa constant regions), expressed in YB2/0 cells; also called KiM3334; YB2/0-derived anti-FGF-8 chimeric antibody) VH: QVQLQQSGAEVARPGASVKLSCKASGYTFTDYYLNWVKQRSGQGLEWIGEIDPGSDSIYYNENLEGRATLTADKSSSTAYMQLNSLTSEDSAVYFCARYGYSRYDVRFVYWGQGTLVTVST VL: DVLMTQTPLSLPVSLGDQASISCRSSQSLVHSNGRTYLEWYLQKPGQSPKVLIYKVSNRISGVPDRFSGSGSGTDFTLKISRVEAEDLGVYFCFQGSHVPYTFGGGTKLEIK	binding result [2]: binds
	binds	anti-FGF-8 CDR-grafted antibody HV0LV6 (antibody, V domains shown, YB2/0-derived, vector pKANTEX1334HV0LV6 (from pKANTEX93, human constant regions); also called KM8037) VH: QVQLVQSGAEVKKPGASVKVSCKASGYTFTDYYLNWVRQAPGQGLEWMGEIDPGSDSIYYNENLEGRVTITADTSTSTAYMELSSLRSEDTAVYYCARYGYSRYDVRFVYWGQGTLVTVSS VL: DVVMTQSPLSLPVSLGEPASISCRSSQSLVHSNGRTYLEWYLQKPGQSPKVLIYKVSNRISGVPDRFSGSGSGTDFTLKISRVEAEDVGVYFCFQGSHVPYTFGQGTKVEIK	
binds		anti-FGF-8 CDR-grafted antibody HV0LV4-3/CHO (antibody, V domains shown, CHO/DG44-derived; also called KM8035) VH: QVQLVQSGAEVKKPGASVKVSCKASGYTFTDYYLNWVRQAPGQGLEWMGEIDPGSDSIYYNENLEGRVTITADTSTSTAYMELSSLRSEDTAVYYCARYGYSRYDVRFVYWGQGTLVTVSS VL: DIVMTQSPLSLPVSLGEPASISCRSSQSLVHSNGRTYLEWYLQKPGQSPQVLIYKVSNRISGVPDRFSGSGSGTDFTLKISRVEAEDVGVYFCFQGSHVPYTFGQGTKVEIK	FGF-8 neutralization activity (FGF-8-dependent growth of SC-3 cells) [4]: ~0.5 fold of the activity of KM3034
	binds	anti-FGF-8 CDR-grafted antibody HV6LV6 (antibody, V domains shown, YB2/0-derived, vector pKANTEX1334HV6LV6 (from pKANTEX93, human constant regions)) VH: QVQLVQSGAEVARPGASVKVSCKASGYTFTDYYLNWVRQRSGQGLEWIGEIDPGSDSIYYNENLEGRVTITADTSTSTAYMELSSLRSEDTAVYFCARYGYSRYDVRFVYWGQGTLVTVSS VL: DVVMTQSPLSLPVSLGEPASISCRSSQSLVHSNGRTYLEWYLQKPGQSPKVLIYKVSNRISGVPDRFSGSGSGTDFTLKISRVEAEDVGVYFCFQGSHVPYTFGQGTKVEIK	
	binds	anti-FGF-8 CDR-grafted antibody HV0LV0 (antibody, V domains shown, YB2/0-derived, vector pKANTEX1334HV0LV0 (from pKANTEX93, human constant regions)) VH: QVQLVQSGAEVKKPGASVKVSCKASGYTFTDYYLNWVRQAPGQGLEWMGEIDPGSDSIYYNENLEGRVTITADTSTSTAYMELSSLRSEDTAVYYCARYGYSRYDVRFVYWGQGTLVTVSS VL: DIVMTQSPLSLPVTPGEPASISCRSSQSLVHSNGRTYLEWYLQKPGQSPQLLIYKVSNRISGVPDRFSGSGSGTDFTLKISRVEAEDVGVYYCFQGSHVPYTFGQGTKVEIK	
binds		anti-FGF-8 CDR-grafted antibody HV0LV6/CHO (antibody, V domains shown, CHO/DG44-derived, vector pKANTEX1334HV0LV6; also called KM8034) VH: QVQLVQSGAEVKKPGASVKVSCKASGYTFTDYYLNWVRQAPGQGLEWMGEIDPGSDSIYYNENLEGRVTITADTSTSTAYMELSSLRSEDTAVYYCARYGYSRYDVRFVYWGQGTLVTVSS VL: DVVMTQSPLSLPVSLGEPASISCRSSQSLVHSNGRTYLEWYLQKPGQSPKVLIYKVSNRISGVPDRFSGSGSGTDFTLKISRVEAEDVGVYFCFQGSHVPYTFGQGTKVEIK	
		anti-FGF-8 CDR-grafted antibody HV0LV3-3/CHO (antibody, V domains shown) VH: QVQLVQSGAEVKKPGASVKVSCKASGYTFTDYYLNWVRQAPGQGLEWMGEIDPGSDSIYYNENLEGRVTITADTSTSTAYMELSSLRSEDTAVYYCARYGYSRYDVRFVYWGQGTLVTVSS VL: DIVMTQSPLSLPVSLGEPASISCRSSQSLVHSNGRTYLEWYLQKPGQSPQVLIYKVSNRISGVPDRFSGSGSGTDFTLKISRVEAEDVGVYYCFQGSHVPYTFGQGTKVEIK	FGF-8 neutralization activity (FGF-8-dependent growth of SC-3 cells) [4]: ~0.5 fold of the activity of KM3034
binds		anti-FGF-8 CDR-grafted antibody HV0LV0/CHO (antibody, V domains shown, CHO/DG44-derived, vector pKANTEX1334HV0LV0) VH: QVQLVQSGAEVKKPGASVKVSCKASGYTFTDYYLNWVRQAPGQGLEWMGEIDPGSDSIYYNENLEGRVTITADTSTSTAYMELSSLRSEDTAVYYCARYGYSRYDVRFVYWGQGTLVTVSS VL: DIVMTQSPLSLPVTPGEPASISCRSSQSLVHSNGRTYLEWYLQKPGQSPQLLIYKVSNRISGVPDRFSGSGSGTDFTLKISRVEAEDVGVYYCFQGSHVPYTFGQGTKVEIK	
